{"source": "paper PMC8809517", "about": "“Cofactor-independent RNA editing by a synthetic S-type PPR protein”", "assay_in_all_cases": "high-throughput RNA pulldown from lysate on Ni-NTA beads; HRP: 50 mM Tris pH 8, 150 mM NaCl, 1 mM beta-mercaptoethanol, 50 ug/ml BSA, 3 ug/ml yeast RNA, 0.5% heparin; ITC and FP: Tris pH 8, 200 mM KCl, 5% glycerol; MST: 50 mM Tris pH 8, 200 mM NaCl, 1 mM DTT, BSA, heparin, 0.05% Tween 20", "settings_in_all_cases": "tags: N-terminal His-eGFP", "key": {"[1]": {"target": "T1, GFP-9S library array, motif 4 ND N98F;D124N (synthetic construct, N98F;D124N)", "T1 chain": "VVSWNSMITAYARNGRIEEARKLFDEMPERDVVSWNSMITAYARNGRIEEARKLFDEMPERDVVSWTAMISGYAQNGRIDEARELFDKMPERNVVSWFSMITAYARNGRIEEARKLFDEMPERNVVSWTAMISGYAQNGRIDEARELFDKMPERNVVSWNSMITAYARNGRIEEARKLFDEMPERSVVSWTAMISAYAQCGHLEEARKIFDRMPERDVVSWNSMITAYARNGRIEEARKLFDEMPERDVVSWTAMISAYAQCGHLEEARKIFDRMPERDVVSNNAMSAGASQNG"}, "[2]": {"target": "T2, GFP-9S library array, motif 4 ND N98D;D124P (synthetic construct, N98D;D124P)", "T2 chain": "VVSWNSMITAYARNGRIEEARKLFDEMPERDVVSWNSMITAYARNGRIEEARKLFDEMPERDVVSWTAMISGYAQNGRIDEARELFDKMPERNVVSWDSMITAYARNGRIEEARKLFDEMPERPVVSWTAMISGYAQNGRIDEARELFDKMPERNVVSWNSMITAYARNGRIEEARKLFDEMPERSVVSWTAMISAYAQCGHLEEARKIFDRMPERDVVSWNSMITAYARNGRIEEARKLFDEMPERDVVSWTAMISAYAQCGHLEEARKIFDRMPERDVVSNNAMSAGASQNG"}, "[3]": {"target": "T3, GFP-9S library array, motif 4 ND N98V;D124I (synthetic construct, N98V;D124I)", "T3 chain": "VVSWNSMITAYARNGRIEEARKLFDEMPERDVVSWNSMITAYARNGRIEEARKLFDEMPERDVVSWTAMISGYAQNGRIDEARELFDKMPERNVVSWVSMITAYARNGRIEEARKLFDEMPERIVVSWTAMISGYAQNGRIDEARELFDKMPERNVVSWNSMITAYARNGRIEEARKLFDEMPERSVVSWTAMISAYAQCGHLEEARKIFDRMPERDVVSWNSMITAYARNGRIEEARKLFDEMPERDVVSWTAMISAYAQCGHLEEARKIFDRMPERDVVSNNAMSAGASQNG"}, "[4]": {"target": "T4, GFP-9S library array, motif 4 ND N98G;D124W (synthetic construct, N98G;D124W)", "T4 chain": "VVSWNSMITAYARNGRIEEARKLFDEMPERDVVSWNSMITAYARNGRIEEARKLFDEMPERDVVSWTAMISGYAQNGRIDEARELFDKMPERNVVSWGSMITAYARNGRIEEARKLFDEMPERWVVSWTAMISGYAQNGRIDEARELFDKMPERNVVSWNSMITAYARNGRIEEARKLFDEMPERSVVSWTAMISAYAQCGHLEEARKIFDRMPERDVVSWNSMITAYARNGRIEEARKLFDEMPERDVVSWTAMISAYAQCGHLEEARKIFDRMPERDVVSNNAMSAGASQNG"}, "[5]": {"target": "T5, GFP-9S library array, motif 4 ND N98Y;D124K (synthetic construct, N98Y;D124K)", "T5 chain": "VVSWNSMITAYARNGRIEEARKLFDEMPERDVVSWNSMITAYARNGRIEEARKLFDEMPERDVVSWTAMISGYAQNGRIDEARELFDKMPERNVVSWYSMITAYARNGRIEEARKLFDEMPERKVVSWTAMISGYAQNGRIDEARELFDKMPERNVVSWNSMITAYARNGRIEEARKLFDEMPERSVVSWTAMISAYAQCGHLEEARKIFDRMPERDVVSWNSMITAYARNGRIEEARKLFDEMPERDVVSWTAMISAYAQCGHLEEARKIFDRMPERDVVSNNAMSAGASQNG"}}, "data": [{"binder": "AUUAUACGUGA (ssRNA)", "note": "[IR-rpoA-U]", "values": [{"measurement": "Kd", "setting": "[1]; label: 5' IRDye 800CW", "value": 112, "unit": "nM"}, {"measurement": "Kd", "setting": "[2]; label: 5' IRDye 800CW", "value": 501, "unit": "nM"}, {"measurement": "Kd", "setting": "[3]; label: 5' IRDye 800CW", "value": 205, "unit": "nM"}, {"measurement": "Kd", "setting": "[4]; label: 5' IRDye 800CW", "value": 67, "unit": "nM"}, {"measurement": "Kd", "setting": "[5]; label: 5' IRDye 800CW", "value": 227, "unit": "nM"}]}, {"binder": "AUUAAACGUGA (ssRNA)", "note": "[IR-rpoA-A]", "values": [{"measurement": "Kd", "setting": "[1]; label: 5' IRDye 800CW", "value": 196, "unit": "nM"}, {"measurement": "Kd", "setting": "[2]; label: 5' IRDye 800CW", "value": 341, "unit": "nM"}, {"measurement": "Kd", "setting": "[3]; label: 5' IRDye 800CW", "value": 384, "unit": "nM"}, {"measurement": "Kd", "setting": "[4]; label: 5' IRDye 800CW", "value": 74.5, "unit": "nM"}, {"measurement": "Kd", "setting": "[5]; label: 5' IRDye 800CW", "value": 207, "unit": "nM"}]}, {"binder": "AUUAGACGUGA (ssRNA)", "note": "[Cy5-rpoA-G]", "values": [{"measurement": "Kd", "setting": "[1]; label: 5' Cy5", "value": 101, "unit": "nM"}, {"measurement": "Kd", "setting": "[2]; label: 5' Cy5", "value": 157, "unit": "nM"}, {"measurement": "Kd", "setting": "[3]; label: 5' Cy5", "value": 163, "unit": "nM"}, {"measurement": "Kd", "setting": "[4]; label: 5' Cy5", "value": 69.1, "unit": "nM"}, {"measurement": "Kd", "setting": "[5]; label: 5' Cy5", "value": 97, "unit": "nM"}]}, {"binder": "AUUACACGUGA (ssRNA)", "note": "[Cy5-rpoA]", "values": [{"measurement": "Kd", "setting": "[1]; label: 5' Cy5", "value": 81.4, "unit": "nM"}, {"measurement": "Kd", "setting": "[2]; label: 5' Cy5", "value": 202, "unit": "nM"}, {"measurement": "Kd", "setting": "[3]; label: 5' Cy5", "value": 121, "unit": "nM"}, {"measurement": "Kd", "setting": "[4]; label: 5' Cy5", "value": 49.7, "unit": "nM"}, {"measurement": "Kd", "setting": "[5]; label: 5' Cy5", "value": 93.3, "unit": "nM"}]}]}
